From US12295987B2, “Method of using a GIP/GLP1 co-agonist for diabetes” (Eli Lilly and Company, priority 2018, dated 2025)

Target: T1, human gastric inhibitory peptide receptor (hGIPR) (Homo sapiens, UniProt P48546)
T1 construct: expressed in transfected cells; host or cells: HEK293
T1 sequence (P48546 22-466): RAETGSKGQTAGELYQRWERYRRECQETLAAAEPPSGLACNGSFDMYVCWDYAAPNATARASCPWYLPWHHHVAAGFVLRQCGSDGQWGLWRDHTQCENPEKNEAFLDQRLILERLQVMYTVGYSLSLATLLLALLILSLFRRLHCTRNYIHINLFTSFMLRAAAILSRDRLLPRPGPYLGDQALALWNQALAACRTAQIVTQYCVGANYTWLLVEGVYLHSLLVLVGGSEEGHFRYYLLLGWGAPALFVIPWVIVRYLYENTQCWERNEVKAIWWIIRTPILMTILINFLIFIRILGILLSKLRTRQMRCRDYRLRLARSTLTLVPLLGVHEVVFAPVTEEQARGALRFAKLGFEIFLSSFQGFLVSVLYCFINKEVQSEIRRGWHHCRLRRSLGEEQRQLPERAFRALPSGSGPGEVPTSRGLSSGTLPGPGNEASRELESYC
Assay: cAMP pharmacological functional assay in presence of 0.1% casein, hGIPR
Type: cell-based
Details: ratio of hGIPR to hGLP1R cAMP EC50 ratios
Description: Each receptor over-expressing cell line (20 μl) is treated with the test peptide in DMEM (Gibco Cat #31053) supplemented with 0.1% Casein (Sigma Cat #C4765), 250 μM IBMX, 1× GlutaMAX™ (Gibco Cat #35050), and 20 mM HEPES (HyClone Cat #SH30237.01) in a 20 μl assay volume. […] EC50 is the concentration of compound causing half-maximal simulation in a dose response curve. A relative EC50 value is derived by non-linear regression analysis using the percent maximal response vs. the concentration of peptide added, fitted to a four-parameter logistic equation.
Intracellular cAMP levels are determined by extrapolation using a standard curve. Dose response curves of compounds are plotted as the percentage of stimulation normalized to minimum (buffer only) and maximum (maximum concentration of each control ligand) values and analyzed using a four parameter non-linear regression fit with a variable slope (Genedata Screener 13). EC50 is the concentration of compound causing half-maximal simulation in a dose response curve.
EC50 is the concentration of compound causing half-maximal simulation in a dose response curve.

| Substance | [hGIPR/hGLP1R] EC50 Ratio |
| --- | --- |
| Y-Aib-EGT-αMeF(2F)-TSD-4Pal-SI-αMeL-LDEK((2-[2-(2-Amino-ethoxy)-ethoxy]-acetyl)2-(γGlu)-CO—(CH2)16—CO2H)AQ-Aib-EFI-(D-Glu)-YLIEGGPSSGAPPPS-NH2 (YXEGTXTSDXSIXLDEKAQXEFIXYLIEGGPSSGAPPPS; Aib, αMeF(2F), 4Pal, αMeL, D-Glu; lipidated K; amide; (2)..(2) Xaa at position 2 is Aib; (6)..(6) Xaa at position 6 is alpha-methyl-Phe(2F); (10)..(10) Xaa at position 10 is 4Pal; (13)..(13) Xaa at position 13 is alpha-methyl-Leu; MOD_RES (17)..(17) Lys at position 17 is chemically modified by conjugation of the epsilon-amino group of the Lys side chain with (2-[2-(2-amino-ethoxy)-ethoxy]-acetyl)2-(gamma-Glu)-CO-(CH2)16- CO2H; (20)..(20) Xaa at posit) [Peptide 204] | 6.65 |
| Y-Aib-EGT-αMeF(2F)-TSD-4Pal-SI-αMeL-LDEK((2-[2-(2-Amino-ethoxy)-ethoxy]-acetyl)2-(γGlu)-CO—(CH2)18—CO2H)AQ-Aib-EFI-(D-Glu)-YLIEGGPSSGAPPPS-NH2 (YXEGTXTSDXSIXLDEKAQXEFIXYLIEGGPSSGAPPPS; Aib, αMeF(2F), 4Pal, αMeL, D-Glu; lipidated K; amide; (2)..(2) Xaa at position 2 is Aib; (6)..(6) Xaa at position 6 is alpha-methyl-Phe(2F); (10)..(10) Xaa at position 10 is 4Pal; (13)..(13) Xaa at position 13 is alpha-methyl-Leu; MOD_RES (17)..(17) Lys at position 17 is chemically modified by conjugation of the epsilon-amino group of the Lys side chain with (2-[2-(2-amino-ethoxy)-ethoxy]-acetyl)2-(gamma-Glu)-CO-(CH2)18- CO2H; (20)..(20) Xaa at posit) [Peptide 182] | 5.01 |
| Y-Aib-EGT-αMeF(2F)-TSD-4Pal-SI-αMeL-LDEK((2-[2-(2-Amino-ethoxy)-ethoxy]-acetyl)2-(γGlu)-CO—(CH2)18—CO2H)AQ-Aib-EFI-Aib-YLIEGGPSSGAPPPS-NH2 (YXEGTXTSDXSIXLDEKAQXEFIXYLIEGGPSSGAPPPS; Aib, αMeF(2F), 4Pal, αMeL; lipidated K; amide; (2)..(2) Xaa at position 2 is Aib; (6)..(6) Xaa at position 6 is alpha-methyl-Phe(2F); (10)..(10) Xaa at position 10 is 4Pal; (13)..(13) Xaa at position 13 is alpha-methyl-Leu; MOD_RES (17)..(17) Lys at position 17 is chemically modified by conjugation of the epsilon-amino group of the Lys side chain with (2-[2-(2-amino-ethoxy)-ethoxy]-acetyl)2-(gamma-Glu)-CO-(CH2)18- CO2H; (20)..(20) Xaa at posit) [Peptide 189] | 3.61 |
| Y-Aib-EGT-αMeF(2F)-TSD-4Pal-SI-αMeL-LDEK((2-[2-(2-Amino-ethoxy)-ethoxy]-acetyl)2-(εK)-CO—(CH2)18—CO2H)AQ-Aib-EFI-(D-Glu)-YLIEGGPSSGAPPPS-NH2 (YXEGTXTSDXSIXLDEKAQXEFIXYLIEGGPSSGAPPPS; Aib, αMeF(2F), 4Pal, αMeL, D-Glu; εK-lipidated K; amide; (2)..(2) Xaa at position 2 is Aib; (6)..(6) Xaa at position 6 is alpha-methyl-Phe(2F); (10)..(10) Xaa at position 10 is 4Pal; (13)..(13) Xaa at position 13 is alpha-methyl-Leu; MOD_RES (17)..(17) Lys at position 17 is chemically modified by conjugation of the epsilon-amino group of the Lys side chain with (2-[2-(2-Amino-ethoxy)-ethoxy]-acetyl)2-(epsilon-Lys)-CO-(CH2)18- CO2H; (20)..(20) Xaa at pos) [Peptide 207] | 3.87 |
| Y-Aib-EGT-αMeF(2F)-TSD-4Pal-SI-αMeL-LDEK((2-[2-(2-Amino-ethoxy)-ethoxy]-acetyl)2-CO—(CH2)16—CO2H)AQ-Aib-EFI-(D-Glu)-YLIEGGPSSGAPPPS-NH2 (YXEGTXTSDXSIXLDEKAQXEFIXYLIEGGPSSGAPPPS; Aib, αMeF(2F), 4Pal, αMeL, D-Glu; lipidated K; amide; (2)..(2) Xaa at position 2 is Aib; (6)..(6) Xaa at position 6 is alpha-methyl-Phe(2F); (10)..(10) Xaa at position 10 is 4Pal; (13)..(13) Xaa at position 13 is alpha-methyl-Leu; MOD_RES (17)..(17) Lys at position 17 is chemically modified by conjugation of the epsilon-amino group of the Lys side chain with (2-[2-(2-amino-ethoxy)-ethoxy]-acetyl)2-CO-(CH2)16-CO2H; (20)..(20) Xaa at position 20 is Aib) [Peptide 205] | 3.91 |
| Y-Aib-EGT-αMeF(2F)-TSD-4Pal-SI-αMeL-LDEK((2-[2-(2-Amino-ethoxy)-ethoxy]-acetyl)2CO—(CH2)18—CO2H)AQ-Aib-EFI-(D-Glu)-YLIEGGPSSGAPPPS-NH2 (YXEGTXTSDXSIXLDEKAQXEFIXYLIEGGPSSGAPPPS; Aib, αMeF(2F), 4Pal, αMeL, D-Glu; lipidated K; amide; (2)..(2) Xaa at position 2 is Aib; (6)..(6) Xaa at position 6 is alpha-methyl-Phe(2F); (10)..(10) Xaa at position 10 is 4Pal; (13)..(13) Xaa at position 13 is alpha-methyl-Leu; MOD_RES (17)..(17) Lys at position 17 is chemically modified by conjugation of the epsilon-amino group of the Lys side chain with (2-[2-(2-amino-ethoxy)-ethoxy]-acetyl)2-CO-(CH2)18-CO2H; (20)..(20) Xaa at position 20 is Aib) [Peptide 206] | 3.35 |
| Y-Aib-EGT-αMeF(2F)-TSD-4Pal-SI-αMeL-LDKK((2-[2-(2-Amino-ethoxy)-ethoxy]-acetyl)2-(γGlu)-CO—(CH2)18—CO2H)AQ-Aib-EFI-(D-Glu)-YLIEGGPSSGAPPPS-NH2 (YXEGTXTSDXSIXLDKKAQXEFIXYLIEGGPSSGAPPPS; Aib, αMeF(2F), 4Pal, αMeL, D-Glu; lipidated K; amide; (2)..(2) Xaa at position 2 is Aib; (6)..(6) Xaa at position 6 is alpha-methyl-Phe(2F); (10)..(10) Xaa at position 10 is 4Pal; (13)..(13) Xaa at position 13 is alpha-methyl-Leu; MOD_RES (17)..(17) Lys at position 17 is chemically modified by conjugation of the epsilon-amino group of the Lys side chain with (2-[2-(2-amino-ethoxy)-ethoxy]-acetyl)2-(gamma-Glu)-CO-(CH2)18- CO2H; (20)..(20) Xaa at posit) [Peptide 203] | 7.38 |
